Measured values: paper PMC12561426, “Dissecting the Interplay Between NRF2 and BACH1 at CsMBEs” (Antioxidants, 2025)

B1: BACH1^DBD with the uncleaved 6xHis linker (released by TEV from BACH1-TEV-sMafGχ^YbbR) (domain or fragment)
chain: not shown
notes: The linker stays on this chain and gives the supershift; also called BACH1^DBD-6xHis-TEV; BACH1 of BACH1/sMafG^YbbR; source: cut from the chimera by TEV in the assay; not shown: linker with 6xHis (3C site removed, up to the TEV site), C-terminal, kept
B2: NRF2^DBD with the uncleaved 6xHis linker (released by TEV from NRF2-TEV-sMafGχ^YbbR) (domain or fragment, human, UniProt Q16236 451-567, looked up)
chain: EAHLTRDELRAKALHIPFPVEKIINLPVVDFNEMMSKEQFNEAQLALIRDIRRRGKNKVAAQNCRKRKLENIVELEQDLDHLKDEKEKLLKEKGENDKSLHLLKKQLSTLYLEVFSM
notes: The linker stays on this chain and gives the supershift; also called NRF2^DBD-6xHis-TEV; NRF2 of NRF2/sMafG^YbbR; source: cut from the chimera by TEV in the assay; not shown: linker with 6xHis (3C site removed, up to the TEV site), C-terminal, kept
B3: NRF2^DBD released by 3C from NRF2-sMafGχ (domain or fragment, human, UniProt Q16236 451-567, looked up)
chain: B2 chain
notes: also called NRF2 of NRF2/sMafG; source: E. coli One Shot BL21 Star (DE3), purified as the chimera (HisTrap, heparin, SEC); cut from the chimera by 3C and TEV in the assay; not shown: linker with 3C site and 6xHis, C-terminal, cleaved
B4: NRF2^DBD (domain or fragment, human, UniProt Q16236 451-567, looked up)
chain: B2 chain
notes: The His-tag is called cleavable; TEV and 3C proteases were present in the EMSA samples; also called NRF2^DBD-3C-6xHis; source: E. coli One Shot BL21 Star (DE3), purified (His-tag purification, heparin)
B5: BACH1^DBD released by 3C from BACH1-sMafGχ (domain or fragment)
chain: not shown
notes: also called BACH1 of BACH1/sMafG; source: E. coli One Shot BL21 Star (DE3), purified as the chimera (HisTrap, heparin, SEC); cut from the chimera by 3C and TEV in the assay; not shown: linker with 3C site and 6xHis, C-terminal, cleaved
B6: BACH1^DBD (domain or fragment)
chain: not shown
notes: The His-tag is called cleavable; TEV and 3C proteases were present in the EMSA samples; also called BACH1^DBD-3C-6xHis; source: E. coli One Shot BL21 Star (DE3), purified (HisTrap, heparin, SEC)

Assays:
[1] = molecular target: T1, sMafG^YbbR (fluorescein-labelled sMafG^DBD-YbbR released by TEV from NRF2-TEV-sMafGχ^YbbR or … (human, UniProt O15525 1-162, fluorescein (CoA-fluorescein conjugate put on the YbbR tag by Sfp))); test: native gel or EMSA; competition: fluorescein-labelled chimera (150 nM) assembled on Cy5-labelled dsDNA (3 nM) with TEV and 3C 4 h at 25 C, then the DBD competitor (150 nM-1.5 uM) added, overnight at 4 C; 10% non-denaturing gel, Cy5 and fluorescein scans; details: both partners purified
T1 construct: small Maf protein G (sMafG), human, residues 1-162, the C-terminal half of the chimeric constructs; source: cut from the chimera by TEV in the assay; not shown: linker with 6xHis and TEV site, N-terminal, cleaved

[2] = molecular target: T2, sMafG^DBD released by TEV from NRF2-sMafGχ or BACH1-sMafGχ (human, UniProt O15525 1-162); test: native gel or EMSA; chimeric constructs (0-300 nM) titrated on fluorescein-labelled CsMBE dsDNA (3 nM) with TEV and 3C proteases 4 h at 25 C; 150 mM NaCl, 50 mM HEPES pH 7.9, 10% glycerol, 1 mM TCEP, 1 mM DTT, 2 mM MgCl2; 6% non-denaturing gel; heterodimer on DNA; details: both partners purified
T2 construct: small Maf protein G (sMafG), human, residues 1-162, the C-terminal half of the chimeric constructs; also called sMafG of NRF2/sMafG and BACH1/sMafG; sMafG^DBDχ; source: E. coli One Shot BL21 Star (DE3), purified as the chimera (HisTrap, heparin, SEC); cut from the chimera by 3C and TEV in the assay; not shown: linker with 6xHis and TEV site, N-terminal, cleaved

[3] = molecular target: the molecule itself; test: SEC-MALS; Superdex 75 increase 10/300, 50 mM HEPES pH 7.9, 2 mM TCEP, 500 mM NaCl, 1-2 mg protein injected; without DNA

Binder | binding result [1] | binding result [2] | stoichiometry N [3]
B1 | binds |  | 
B2 | binds |  | 
B3 |  | binds | 
B4 | binds |  | 
B5 |  | binds | 
B6 | binds |  | 2
